T1: Abp1, P15891
T1 sequence (P15891 535-592, looked up): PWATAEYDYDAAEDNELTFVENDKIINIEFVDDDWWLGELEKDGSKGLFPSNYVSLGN

T2: Bbc1, P47068
T2 sequence (P47068 1-78, looked up): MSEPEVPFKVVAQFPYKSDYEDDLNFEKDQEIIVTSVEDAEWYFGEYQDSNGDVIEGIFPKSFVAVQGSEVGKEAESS

T3: Boi1, P38041
T3 sequence (P38041 1-86, looked up): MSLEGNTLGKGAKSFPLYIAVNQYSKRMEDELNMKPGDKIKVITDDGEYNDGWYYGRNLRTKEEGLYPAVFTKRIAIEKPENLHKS

T4: Boi2, P39969
T4 sequence (P39969 32-116, looked up): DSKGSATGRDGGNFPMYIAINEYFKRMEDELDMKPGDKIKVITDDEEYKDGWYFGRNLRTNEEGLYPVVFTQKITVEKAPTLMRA

T5: Bud14, P27637
T5 sequence (P27637 247-328, looked up): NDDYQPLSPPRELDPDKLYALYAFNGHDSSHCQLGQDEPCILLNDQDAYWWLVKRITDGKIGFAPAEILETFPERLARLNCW

T6: Bzz1-1, P38822
T6 sequence (P38822 478-572, looked up): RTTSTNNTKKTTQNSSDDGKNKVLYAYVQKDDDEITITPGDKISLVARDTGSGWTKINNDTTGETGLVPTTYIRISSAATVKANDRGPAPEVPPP

T7: Bzz1-2, P38822
T7 sequence (P38822 568-633, looked up): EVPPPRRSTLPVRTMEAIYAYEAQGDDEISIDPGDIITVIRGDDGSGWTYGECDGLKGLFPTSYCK

T8: Cdc25, P04821
T8 sequence (P04821 50-136, looked up): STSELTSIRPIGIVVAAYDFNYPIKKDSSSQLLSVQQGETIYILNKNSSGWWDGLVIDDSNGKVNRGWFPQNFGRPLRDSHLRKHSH

T9: Cyk3, Q07533
T9 sequence (Q07533 1-83, looked up): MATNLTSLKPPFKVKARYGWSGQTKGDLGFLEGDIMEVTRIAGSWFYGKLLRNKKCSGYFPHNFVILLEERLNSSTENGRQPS

T10: Fus1, P11710
T10 sequence (P11710 432-512, looked up): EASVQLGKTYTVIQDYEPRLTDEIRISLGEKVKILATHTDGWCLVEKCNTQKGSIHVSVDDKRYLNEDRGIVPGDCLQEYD

T11: Hof1, Q05080
T11 sequence (Q05080 590-669, looked up): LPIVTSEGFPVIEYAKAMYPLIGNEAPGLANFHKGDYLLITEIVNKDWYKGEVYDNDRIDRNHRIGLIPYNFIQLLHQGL

T12: Hse1, P38753
T12 sequence (P38753 208-285, looked up): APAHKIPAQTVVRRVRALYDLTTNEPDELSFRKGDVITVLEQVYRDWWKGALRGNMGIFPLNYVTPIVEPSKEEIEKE

T13: Lsb1, P53281
T13 sequence (P53281 45-122, looked up): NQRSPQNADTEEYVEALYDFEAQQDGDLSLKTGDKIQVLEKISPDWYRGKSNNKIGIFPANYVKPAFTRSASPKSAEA

T14: Lsb3, P43603
T14 sequence (P43603 385-451, looked up): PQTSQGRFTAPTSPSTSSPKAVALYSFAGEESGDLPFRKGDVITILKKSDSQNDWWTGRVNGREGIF

T15: Lsb4, P32793
T15 sequence (P32793 402-468, looked up): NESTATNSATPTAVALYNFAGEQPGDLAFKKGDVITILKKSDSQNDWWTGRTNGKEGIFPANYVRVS

T16: Myo5, Q04439
T16 sequence (Q04439 1072-1160, looked up): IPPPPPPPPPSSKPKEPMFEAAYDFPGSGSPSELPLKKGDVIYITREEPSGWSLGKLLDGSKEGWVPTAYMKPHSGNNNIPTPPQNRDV

T17: Nbp2, Q12163
T17 sequence (Q12163 103-180, looked up): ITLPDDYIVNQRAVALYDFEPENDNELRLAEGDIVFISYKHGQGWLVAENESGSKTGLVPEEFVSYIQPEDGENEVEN

T18: Pex13, P80667
T18 sequence (P80667 295-386, looked up): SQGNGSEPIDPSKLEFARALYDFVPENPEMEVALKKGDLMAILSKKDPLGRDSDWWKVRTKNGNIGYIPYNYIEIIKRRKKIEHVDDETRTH

T19: Pin3, Q06449
T19 sequence (Q06449 53-122, looked up): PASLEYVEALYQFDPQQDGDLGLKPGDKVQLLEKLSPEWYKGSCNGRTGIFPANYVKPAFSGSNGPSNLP

T20: Sla1-2, P32790
T20 sequence (P32790 60-140, looked up): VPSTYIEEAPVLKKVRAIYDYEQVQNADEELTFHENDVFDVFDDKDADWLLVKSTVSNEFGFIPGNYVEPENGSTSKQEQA

T21: Sla1-3, P32790
T21 sequence (P32790 344-424, looked up): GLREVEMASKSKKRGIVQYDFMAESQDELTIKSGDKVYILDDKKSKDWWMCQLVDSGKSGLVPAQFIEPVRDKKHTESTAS


Legend:
Assay in all cases: SPOT array
Abp1, P15891 = biological target: T1, Abp1, P15891; conditions: median of control spots 935
Bbc1, P47068 = biological target: T2, Bbc1, P47068; conditions: median of control spots 796
Bem1-1, P29366 = conditions: median of control spots 4282
Bem1-1, P29366, sequence (P29366 55-141): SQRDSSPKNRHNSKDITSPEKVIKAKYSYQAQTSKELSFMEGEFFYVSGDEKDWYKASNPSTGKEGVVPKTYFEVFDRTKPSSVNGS

Bem1-2, P29366 = conditions: median of control spots 4347
Bem1-2, P29366, sequence (P29366 139-227): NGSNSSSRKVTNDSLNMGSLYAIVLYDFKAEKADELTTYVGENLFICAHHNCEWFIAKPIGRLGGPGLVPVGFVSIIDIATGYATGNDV

Boi1, P38041 = biological target: T3, Boi1, P38041; conditions: median of control spots 1162
Boi2, P39969 = biological target: T4, Boi2, P39969; conditions: median of control spots 1161
Bud14, P27637 = biological target: T5, Bud14, P27637; conditions: median of control spots 956
Bzz1-1, P38822 = biological target: T6, Bzz1-1, P38822; conditions: median of control spots 4446
Bzz1-2, P38822 = biological target: T7, Bzz1-2, P38822; conditions: median of control spots 4538
Cdc25, P04821 = biological target: T8, Cdc25, P04821; conditions: median of control spots 969
Cyk3, Q07533 = biological target: T9, Cyk3, Q07533; conditions: median of control spots 1451
Fus1, P11710 = biological target: T10, Fus1, P11710; conditions: median of control spots 1200
GST = conditions: median of control spots 978
Hof1, Q05080 = biological target: T11, Hof1, Q05080; conditions: median of control spots 4086
Hse1, P38753 = biological target: T12, Hse1, P38753; conditions: median of control spots 1727
Lsb1, P53281 = biological target: T13, Lsb1, P53281; conditions: median of control spots 388
Lsb3, P43603 = biological target: T14, Lsb3, P43603; conditions: median of control spots 406
Lsb4, P32793 = biological target: T15, Lsb4, P32793; conditions: median of control spots 397
Myo3, P36006 = conditions: median of control spots 468
Myo5, Q04439 = biological target: T16, Myo5, Q04439; conditions: median of control spots 471
Nbp2, Q12163 = biological target: T17, Nbp2, Q12163; conditions: median of control spots 357
Pex13, P80667 = biological target: T18, Pex13, P80667; conditions: median of control spots 1341
Pin3, Q06449 = biological target: T19, Pin3, Q06449; conditions: median of control spots 2171
Rvs167, P39743 = conditions: median of control spots 2707
Rvs167, P39743, sequence (P39743 419-482): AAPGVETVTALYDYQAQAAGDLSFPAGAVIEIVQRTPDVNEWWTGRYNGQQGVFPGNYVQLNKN

Sho1, P40073 = conditions: median of control spots 1148
Sho1, P40073, sequence (P40073 287-367): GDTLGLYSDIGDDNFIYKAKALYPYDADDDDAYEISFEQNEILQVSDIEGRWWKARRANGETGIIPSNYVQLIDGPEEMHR

Sla1-2, P32790 = biological target: T20, Sla1-2, P32790; conditions: median of control spots 712
Sla1-3, P32790 = biological target: T21, Sla1-3, P32790; conditions: median of control spots 5475

| Binder | SPOT intensity (Abp1, P15891) | SPOT intensity (Bbc1, P47068) | SPOT intensity (Bem1-1, P29366) | SPOT intensity (Bem1-2, P29366) | SPOT intensity (Boi1, P38041) | SPOT intensity (Boi2, P39969) | SPOT intensity (Bud14, P27637) | SPOT intensity (Bzz1-1, P38822) | SPOT intensity (Bzz1-2, P38822) | SPOT intensity (Cdc25, P04821) | SPOT intensity (Cyk3, Q07533) | SPOT intensity (Fus1, P11710) | SPOT intensity (GST) | SPOT intensity (Hof1, Q05080) | SPOT intensity (Hse1, P38753) | SPOT intensity (Lsb1, P53281) | SPOT intensity (Lsb3, P43603) | SPOT intensity (Lsb4, P32793) | SPOT intensity (Myo3, P36006) | SPOT intensity (Myo5, Q04439) | other results |
| --- | --- | --- | --- | --- | --- | --- | --- | --- | --- | --- | --- | --- | --- | --- | --- | --- | --- | --- | --- | --- | --- |
| RSVKRPRRAPRPVVS | 204 | 377 | 3 | 15 | 1 | 6 | 12 | 0 | 3 | 20 | 12 | 19 | 4 | 6 | 8 | 94 | 52 | 34 | 11 | 1 | SPOT intensity (Nbp2, Q12163): 67; SPOT intensity (Pex13, P80667): 0; SPOT intensity (Pin3, Q06449): 2; SPOT intensity (Rvs167, P39743): 9; SPOT intensity (Sho1, P40073): 60; SPOT intensity (Sla1-2, P32790): 6; SPOT intensity (Sla1-3, P32790): 25 |
| RMVRRRPLRVQFSAR | 270 | 235 | 6 | 27 | 14 | 12 | 36 | 4 | 16 | 94 | 12 | 92 | 9 | 10 | 41 | 60 | 35 | 25 | 50 | 10 | SPOT intensity (Nbp2, Q12163): 104; SPOT intensity (Pex13, P80667): 17; SPOT intensity (Pin3, Q06449): 70; SPOT intensity (Rvs167, P39743): 3; SPOT intensity (Sho1, P40073): 259; SPOT intensity (Sla1-2, P32790): 37; SPOT intensity (Sla1-3, P32790): 128 |
| NRLRKRLNLPSEISI | 36 | 74 | 0 | 3 | 12 | 3 | 7 | 6 | 13 | 42 | 8 | 321 | 1 | 45 | 99 | 459 | 3 | 0 | 4 | 2 | SPOT intensity (Nbp2, Q12163): 32; SPOT intensity (Pex13, P80667): 2; SPOT intensity (Pin3, Q06449): 17; SPOT intensity (Rvs167, P39743): 0; SPOT intensity (Sho1, P40073): 58; SPOT intensity (Sla1-2, P32790): 1; SPOT intensity (Sla1-3, P32790): 141 |
| QRKSLRRPTLSKPAV | 78 | 37 | 0 | 1 | 2 | 0 | 2 | 4 | 16 | 7 | 4 | 2 | 6 | 4 | 10 | 32 | 3 | 3 | 10 | 3 | SPOT intensity (Nbp2, Q12163): 5; SPOT intensity (Pex13, P80667): 3; SPOT intensity (Pin3, Q06449): 9; SPOT intensity (Rvs167, P39743): 0; SPOT intensity (Sho1, P40073): 116; SPOT intensity (Sla1-2, P32790): 3; SPOT intensity (Sla1-3, P32790): 22 |

More lines, main results first:

| SPOT intensity (Abp1, P15891) | SPOT intensity (Bbc1, P47068) | SPOT intensity (Bem1-1, P29366) | SPOT intensity (Bem1-2, P29366) | SPOT intensity (Boi1, P38041) | SPOT intensity (Boi2, P39969) | SPOT intensity (Bud14, P27637) | SPOT intensity (Bzz1-1, P38822) | SPOT intensity (Bzz1-2, P38822) | SPOT intensity (Cdc25, P04821) | SPOT intensity (Cyk3, Q07533) | SPOT intensity (Fus1, P11710) | SPOT intensity (GST) | SPOT intensity (Hof1, Q05080) | SPOT intensity (Hse1, P38753) | SPOT intensity (Lsb1, P53281) | SPOT intensity (Lsb3, P43603) | SPOT intensity (Lsb4, P32793) | SPOT intensity (Myo3, P36006) | SPOT intensity (Myo5, Q04439) | Binder | other results |
| --- | --- | --- | --- | --- | --- | --- | --- | --- | --- | --- | --- | --- | --- | --- | --- | --- | --- | --- | --- | --- | --- |
| 78 | 77 | 1 | 0 | 6 | 2 | 22 | 3 | 1 | 16 | 8 | 150 | 6 | 0 | 4 | 1 | 8 | 4 | 9 | 0 | KRKRRLPVSEDTNTK | SPOT intensity (Nbp2, Q12163): 8; SPOT intensity (Pex13, P80667): 0; SPOT intensity (Pin3, Q06449): 4; SPOT intensity (Rvs167, P39743): 1; SPOT intensity (Sho1, P40073): 54; SPOT intensity (Sla1-2, P32790): 0; SPOT intensity (Sla1-3, P32790): 21 |
| 46 | 15 | 2 | 4 | 1 | 2 | 13 | 3 | 8 | 13 | 3 | 3 | 1 | 4 | 16 | 29 | 0 | 1 | 0 | 0 | TIRRRAPLSLLESHT | SPOT intensity (Nbp2, Q12163): 11; SPOT intensity (Pex13, P80667): 3; SPOT intensity (Pin3, Q06449): 11; SPOT intensity (Rvs167, P39743): 3; SPOT intensity (Sho1, P40073): 52; SPOT intensity (Sla1-2, P32790): 1; SPOT intensity (Sla1-3, P32790): 38 |
